Assay: label from the status in PepcDB records
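Note: failed if final PepcDB status was selected cloned or expressed and not failed if soluble or beyond.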

Sequence | protein production
MFFVNRRLIKRVFLGFAVIALLLPLVLKQSFEITAEVIVQSKKLSQTDANTVLAPDSDKFIPPSLADMETESNILRSPTLIRDTIDQLRREGQFGGSEGLLTRLIVKPIRNGLIDPLRNHVINPVRGFFGLAVDPVRDTSLDAFTDQAVKDLKIGTLPGSNVISIVYASPNAAEGTRFVERLLANYLKNRQDLQSNELPEAFYEQKKAQYQSRLDDLEGKRQALLEAAHASDPKEEITFRLNAINTEEQSLNGYRDQALENQRRLDYLQKNLAAARKAGLTDYTFPFAFANTVDNVAYEDREIKQLGEQLTNLVSQYGTTADTYRADSVPMQQQREQIVRARAQFLKVVENRVRERSSDLQITQSVIAQKTARINDYKARVRDLQEVLSKLRQLDTEIDALHKAFFTYTQRYEESRGERLISGELSNARVLSQPYEPSEAAFPKPMLIIPLGLLTGLLLAIALGYVYEFFDHRFKHPAQVSDHLGLPVLMVLNAVEQPQVNPYPRWTWRWAWHWAKQ | failed
QDWLTFQKKHITNTRDVDCDNIMSTNLFHCKDKNTFIYSRPEPVKAICKGIIASKNVLTTSEFYLSDCNVTSRPCKYKLKKSTNKFCVTCENQAPVHFVGVGSC | not failed
MSATFSPTAVTDLKDIQDVERLMGRIKEARAAVGEVIFGQEAVVDEVLVTLLAGGHALLIGLPGLAKTKLVQTLGTVVGLRDKRVQFTPDLMPADILGSEVLEEDAAGQRGFRFLPGPVFCQLLMADEINRASPRTQSALLQAMQEHRVSVAGHYHDLPAPFHVLATQNPIEQEGTYPLPEAQLDRFLMQVDVGYPDEAAERRMLAATTGVHQPEARAVMTPAELQAAQALVRRVPVGDSVVDAILSLVRAGRPESSPLPEVRDWVAWGPGPRASQALTLAVRARALLDGRFAPSIEDVIALAHPILRHRMALSFGARADGVTLGRVVDRLIDKIALEHHHHHH | not failed
MKKKMITALGVSAIILTNFVGSTYADSKIGVSVTAPYNKNQIAEWLEMHAKPLKTTNPNAPFNDLKPFKNMVGSASIVGLGEATHGAHEVFTMKNRIVNYLVSEKGFTNLVLEEGWDRALELDRYVLTGEGNPSQHLSPVFKTKEMLDLLNWIRQYNANPKHKSKVRIIGMDIQSVNENVYNNIIEYVKRTNSKLVPRIEEKIKGLIPVTKDMNTFESLTKEEKEKYISDAKQISAVLEENKSYLNGKSKEFAWIKQNARIIEQFTTMLTSPPDKPSDLFLKHDIAMYENAKWTEEHLGKTIVWGHNGHVSKTNMLPFVYPKVAGQYLAEYYGKRYVSIGTSVYEGQYNVKNSDGEFGPYGILKSDDPNSYNYIFGQVKKDQFFIDLRKANGVTKNWLNEQHPIFAGVTTEGPGIPKTVDISLGKAFDILVQIQKVSPSQLHQLEHHHHHH | failed
LDYQRLYGTRCFSCDQFIEGEVVSALGKTYHPDCFVCAVCRLPFPPGDRVTFNGKECMCQKCSLPVSV | not failed
MSEAKELIKKMCDLQNSNEEIQKEMAGWSGVVQYKLDGYYFYVEYKSDGTCEFKEGVHSSPTFTVVAPPDFWLAVLKGQEDPVSGFMMGKYRIEGNIMEAQRLAGVIKKFQGKFEL | not failed
MHSGLDNSAELRVSDFDPITLAGGTRTEVLPGAIQPHAALLALAPADLTIVHAAGATASLLGAAAELLPGTAASTAFSSDQIARLQALATAERWIERPQHAFTLNAPDATPIDVIVHHASGLLVVELDPRREPAPENSLALVQSMIRRARPAPNLQGFCDAMAAELRSVTGFDRVMVYRFARDGSADVIAEARGPETSPFLGLRDPQPDISNQPGSISRIRVQPDVHAPAAPLWPAHSPRNGLALDLSFSATRSASPEHRLYLAQLGVAASLSLSLVVEGELWGLIVCHHATPRFLPYRMREACALFAEMASLQLETRLAADQLAARLRSTRIHEELVTRMSQESDLAEGLIRFYPNLLDFIPAAGVGLWIDGQFTGIGATPGPAQVAAMMGWLHGVPHDGVYHTDCLALAYPPAKAFAGCASGLLALSLSNTPHNYVLWFRPEVVRVVTWAGMPNKPVGVDAGAPRTPKGCASSWQESVRLHGEPWLDTDVDAAHRLRESLLDVVLRRIDGIARERRSAQLLQEQLMRQVELGLSRSKDVAKTLQEEKRRRVLVEADLSKVLRRTVEDQEAERLRIARELHDTLGQSLTLLQLGFDKLGQAAGDNPELQQRIAEMKSLTADVGRQANRLAWEIRPTALDDLGIQTAIQNLLDSWSEKSSIEFDLHMTLGSRRLPSPVETTLYRVLQEALTNVVRHASARHVSVILQLGDDQVTMIVEDDGCGFVTAGRKPPSGRLGLLGIRERLSLVGGSLEIESAPGKGTALYARIPL | failed
MACSRFERQNMFKLCLDFTQKRAPMSQKQPINLVLSGGGTRAIGHLAIISALLERGFEIRAISGSSGGAIVGSLLASGKSPKECYDLLLKTNFVRLFAFKMSQGGLFHLKRGEAYLEKILGIKEFSELSLPLYVCVVDLKEGRPFFLSEGNIAKAVIASSSISPFMRPVEMEGRMGADGGIMNNLPIEPFLEENLPIIGINVNPNRPFHSHSMVSIAKRALFLQFYSNILERSKLCSLYLEPSGIDAYTIYDLKSLESVYNLCQEWCETNLDALIGDVPLHVLRP | failed
MHLATLASGSSGNSIVVGHEKRNFLVDCGISLKATLHNLAILDIAPSEIEGIFITHEHSDHIKGVGAVARKLKIPIYASAKIWDELNPSIGKLKDEQRVVVKDAFTCAGLRVRVFPTSHDSQESFGVRVEVEQPVKGRSRAIGIATDTGIVTEEMHQALKGCDALVVEANHDREMLWQGGYPWYLKKRISGNYGHLENSQLAEGLLQWIEGNTQRIVLAHLSDENNTPETALSTILRILKESRVAKENRDLRLRVAPRYTPHELIVLEEY | failed
FRPHFLQAPGDLTVQEGKLCRMDCKVSGLPTPDLSWQLDGKPVRPDSAHKMLVRENGVHSLIIEPVTSRDAGIYTCIATNRAGQNSFSLELVVAAKE | not failed
MSAIRSRRSLLIPVLIVALLHVYIGVRLLPGLPVPMIVHSLAVLWLIASTLLMPAALMARRLSTPWADQLSWVGMMAMGFFSSLLVLTIARDLFLLVTLAIGWRPPGLTGYSALGAIALALAVTVIGFFQARGLAKVKEVDVPIANLPDALHGFTIAQISDIHVGPTIKRPYIDRIVDRVNSLAPDAIAITGDLVDGSVRELSAHTAPFARLSARHGAYVVTGNHEYYSGAEAWIVELRRLGLRVLMNEHVVVERGDASLVLGGVTDFTAGGFIESHRSDPVQALDGAPRDAAARVLLAHQPRTAPAAAAAGFDLQLSGHTHGGQFWPWNLFVPMQQPYVHGLNRHDNLWVYVSRGTGYWGPPKRFGAPSEITLVRLVRG | failed
MAAHLEEQQELDNFKYFWKTTGKWLFALLILAALGYLGYTVYQNRKVSQNQEAAAVLANIVEKAQSKAPQSEINAELTKLQQSYPHSISAAQATLMAAATEFDAQRYDVAEGHLKWVLSNQKDSLIQALAAQRLGVVLLQQKKYDAALAALDTPVEADFAPLLMETKGDVYAAQGKSQEALKNYGQALEKMPQDSVGRELVQMKLDSLK | failed
MPTTSRPALDVKGGTSPAKEDANQEMSSVAYSNLAVKDRKAVAILHYPGVASNGTKASGAPTSSSGSPIGSPTTTPPTKPPSFNLHPAPHLLASMQLQKLNSQYQGMAAATPGQPGEAGPLQNWDFGAQAGGAESLSPSAGAQSPAIIDSDPVDEEVLMSLVVELGLDRANELPELWLGQNEFDFTADFPSSC | failed
MLTLLNLLSAVTLLVWGTHIVRTGILRVFGSNLRRIISQNMDKRPLAFIAGILVTAMVQSSNATAMLVTSFVGQGLMAMTPALAIMLGADVGTALMARVLTFDLSWLSPLLIFLGVIFFLSRKQTRAGQLGRVGIGLGLIILALELIVQAAAPITQAQGVKVLFASLTGDIMLDALVGAMFAMISYSSLAAVLLTATLAGAELISLPVAIGLVVGANIGSGLLAFISTSMQNAAGRRVALGSLLYKLIGLVLIIPVLHPLVAWMDSLSFSPQELVIGFHLLYNTLRCLIMLPTVKPMGRLCNALLPEREIGNGQVRPRHLDASALETPSLALANAARETLRLGDIVDSLLEAMLGALRGTQTALPQQVRALGEDAEALYSAIKLYLAQMSREDLSEQDNRRWAEIIELSINLKLACDLIERMLRKVQQQKTSQRREFSQVGLEELTGLQEQLLANLRLGLSVFLSADPESARLLLREKRRFRAQERRLAHAHVSRLQRKVVQSIETSSLHLELIADMKRLNSLFCSSAYVVLGGSDTGGLMLDSVPDEARLP | failed
MPKVEIAPSEIKIPDNVLKAKLGFGGAEEIPEEFRKTVNRAYEELLDAAKPVVLWRDFEVDGSLSFDDMRLTGELATKHLSGSKIITVFLATLGKKVDEKIEEYFRKGEDLLAFFIDGIASEMVEYALRKVDAELRMKRSNLEGSFRISPGYGDLPLSLNKKIAEIFKEEVDVNVIEDSYVLVPRKTITAFVGWREKNEKQT | not failed
MKVKILVDSTADVPFSWMEKYDIDSIPLYVVWEDGRSEPDEREPEEIMNFYKRIREAGSVPKTSQPSVEDFKKRYLKYKEEDYDVVLVLTLSSKLSGTYNSAVLASKEVDIPVYVVDTLLASGAIPLPARVAREMLENGATIEEVLKKLDERMKNKDFKAIFYVSNFDYLVKGGRVSKFQGFVGNLLKIRVCLHIENGELIPYRKVRGDKKAIEALIEKLREDTPEGSKLRVIGVHADNEAGVVELLNTLRKSYEVVDEIISPMGKVITTHVGPGTVGFGIEVLERKR | not failed
MPFVAVATCLSPLIICYPQNRTMECDLLMIKIEKVINKNDLKAFIAFPSSLYPDDPNWIPPLFIERNEHLSAKNPGTDHIIWQAWVAKKAGQIVGRITAQIDTLHRERYGKDTGHFGMIDAIDDPQVFAALFGAAEAWLKSQGASKISGPFSLNINQESGLLIEGFDTPPCAMMPHGKPWYAAHIEQLGYHKGIDLLAWWMQRTDLTFSPALKKLMDQVRKKVTIRCINRQRFAEEMQILREIFNSGWQHNWGFVPFTEHEFATMGDQLKYLVPDDMIYIAEIDSAPCAFIVGLPNINEAIADLNGSLFPFGWAKLLWRLKVSGVRTARVPLMGVRDEYQFSRIGPVIALLLIEALRDPFARRKIDALEMSWILETNTGMNNMLERIGAEPYKRYRLYEKQI | failed
MHTNWQVCSLVVQAKSERISDISTQLNAFPGCEVAVSDAPSGQLIVVVEAEDSETLIQTIESVRNVEGVLAVSLVYHQQEEQGEETP | not failed
MERGVDNWKVDCKCGTKDDDGERMLACDGCGVWHHTRCIGINNADALPSKFLCFRCIEL | not failed
MHFRLSFISIIYRLLGILLASAFVGWLFDYVLLVMLATSIFLLVWHYHHLFKLINWIWQSKALSPPQAKGVWGYLYDGLYRQVKQQRNKQKQLNEKIRRFRDGAEALPDAALMLSEELTIEWGNKKAQRLLGVRWPDDFGQRIDNLLRAPEFSDYLAHENFEYPCLLVSPIHSDVQLEIRLMAYGSEHVLLLARDISNLQRLEDMRRDFVANVSHELKTPLTVVRGYVEMIQASPEAFDPHWQKAFQTIEGQVSRMDRLVEQLLNLAKVENNSDDEKQCVNMAQLIRTLVDEVTWLNQEKQHQIMLDISTDVSVLGFETELKSACANLLSNAIAYTPPKGCIEVSWRLMGNKAIFSVKDNGDGIKPEHVNRLTERFYRIDRSRSRDTGGSGLGLAIVKHVLHHHQAELIINSHWGQGSEFSIYFDPSTLSNPSR | failed
KTGQLLPKSPAARYEAIQWLMFQMGGVGPMFGQLGFFHKFAGKDYEDKRPRDRYVAESRRLLQVLEGRMAGRAWIMGDEYTIADIAIWPWVRNLVGFYGAGELVGFDDFPNIQRVVQAFAERPAVARGLAIPARD | failed
MTGLSQSQASPMQIQPGNAAFNPWTDAALDTIRDVNQALTLYAEMRVVPAHHDAFLAAIDTVSAKLRVLPGFLSLALKQMSGDSTMVKNYPETYKGVLATAYLDGVAAGTQPYFYNLFVRFADGRAARAAGFEALFETHIHPLLHAMAPRGGDGPELLAYRAVLQSVVAGDRHAIYRGAEEIRSFLRRPVELPERETVTVENHVMVPEDKHAAWEPQVAILLQVAQDTFEPQDEPSGVGLPGARDNRYYRKALSTEILRNAHADGGLRAYIMHGVWESVWDHENSHLDPRFLAAAGPVGAAAVVGPVEPFYLTRRLVVAD | not failed

Reference: a protein production outcome set (Wang et al. 2014)
